# Measurements as given in publication PMC7382501.
# Test system: FasR wild-type (FasRwt) (Mycobacterium tuberculosis H37Rv)
# Assay: EMSA
substance,measurement,value
PfasMT promoter fragment (398 bp),Kd,83 nM
